{"source": "patent US20160206741", "test_system": "T1, GRRRGK (SEQ ID NO: 1) oligopeptide crosslink within P(MAA-co-NVP) microgels", "T1 sequence": "GRRRGK", "data": [{"substance": "trypsin", "values": [{"measurement": "relative turbidity of microgel solutions over time", "result": "reduced relative turbidity as a function of time and trypsin concentration"}, {"measurement": "trypsin activity on the BAEE substrate (absorbance at 253 nm) after 90 min with 0-6 mg/ml microgels", "result": "trypsin activity on the BAEE substrate is reduced as microgel concentration increases"}]}]}
